Test results published in article PMC3839082.

Target: hCINAP-H79G mutant (human) (UniProt Q9Y3D8)
Assay: SEC

stoichiometry N: 2
Substance: hCINAP-H79G mutant (from UniProt Q9Y3D8 1-172) (enzyme)
